Measurements published in paper PMC10065082 (The Journal of Clinical Investigation, 2023).

B1: hNaV1.6CTD peptide (residues 1891-1918 of human NaV1.6) (peptide)
peptide: RRKQEEVSAVVLQRAYRGHLARRGFICK
notes: Carboxy terminal domain peptide with the IQ motif of human NaV1.6, residues 1891-1918; source: synthetic peptide (LifeTein), at least 90% purity by HPLC
B2: hNaV1.6CTD peptide (residues 1891-1918 of human NaV1.6) (peptide)
peptide: RRKQEEVSAVVLQRAYRGHLARRGFICK
notes: human NaV1.6 carboxy terminal domain stretch with the IQ motif, residues 1891-1918; source: synthetic peptide (LifeTein), at least 90% purity by HPLC

Tests used:
Conditions in all cases: both partners purified
wild-type calmodulin [1] = target: T1, wild-type calmodulin (UniProt P0DP23 1-149); assay: ITC; 0 Ca2+; Microcal VP-ITC, 25°C, 10 mM Mops, 2 mM EGTA, 1 mM TCEP, 150 mM KCl, pH 7; NaV1.5CTD (55-75 uM) or NaV1.6CTD (73-110 uM) peptides and WT CaM or D96V-CaM (5-15 uM); 28 injections; fitted to a model of 1 binding site per monomer
T1 construct: Calmodulin (CaM), recombinant; GenBank M19381.1 (mouse CaM I) is printed only for the transgene of the mice, not for the recombinant protein; also called WT CaM; CaM

wild-type calmodulin [2] = target: T1, wild-type calmodulin; assay: ITC; in the presence of 10 uM free Ca2+; NaV1.6CTD peptide and WT CaM or D96V-CaM
WT calmodulin [3] = target: T2, WT calmodulin (UniProt P0DP23 1-149); assay: ITC; Microcal VP-ITC, 25°C, 10 mM Mops, 2 mM EGTA, 1 mM TCEP, 150 mM KCl, pH 7, 0 Ca2+; NaV1.5CTD (55-75 uM) or NaV1.6CTD (73-110 uM) peptide and WT CaM or D96V-CaM (5-15 uM); fitted to a model of 1 binding site per monomer
T2 construct: calmodulin, recombinant; Legends say the recombinant CaMs were not FLAG tagged in the patch-clamp experiments; nothing is said of tags for ITC; also called WT CaM; WT-CaM

WT calmodulin [4] = target: T2, WT calmodulin; assay: ITC; Microcal VP-ITC, 25°C, 10 mM Mops, 2 mM EGTA, 1 mM TCEP, 150 mM KCl, 1.93 mM CaCl2, pH 7, 10 uM free Ca2+; NaV1.6CTD (73-110 uM) peptide and WT-CaM (12 uM) or D96V-CaM (16 uM); fitted to a one-binding site per monomer model

Binder	Kd (wild-type calmodulin [1])	Kd (wild-type calmodulin [2])	stoichiometry N (WT calmodulin [3])	stoichiometry N (WT calmodulin [4])
B1	243 nM	132 nM		
B2			1	1
